Measured values reported in IntAct's records for PubMed 20924357.

B1: Cryptic beta-glucoside bgl operon antiterminator (Escherichia coli (strain K12)), P11989 (parent)
chain: MNMQITKILNNNVVVVIDDQQREKVVMGRGIGFQKRAGERINSSGIEKEYALSSHELNGRLSELLSHIPLEVMATCDRIISLAQERLGKLQDSIYISLTDHCQFAIKRFQQNVLLPNPLLWDIQRLYPKEFQLGEEALTIIDKRLGVQLPKDEVGFIAMHLVSAQMSGNMEDVAGVTQLMREMLQLIKFQFSLNYQEESLSYQRLVTHLKFLSWRILEHASINDSDESLQQAVKQNYPQAWQCAERIAIFIGLQYQRKISPAEIMFLAINIERVRKEH

Variants of: B1
Details: with pthp_ecoli ptsH

Q: Which “effect of a mutation on the interaction” value does the source give for H160Y here?
A: increasing interaction

Variants of: B1
Details: with pthp_ecoli ptsH
Remark: another data set of the same source

Q: For H208R, which “effect of a mutation on the interaction” value is on record?
A: increasing interaction

Variants of: B1
Details: with pt1_ecoli ptsI

Q: For H208R, which “effect of a mutation on the interaction” value is on record?
A: increasing interaction

Variants of: B1
Details: with pt1_ecoli ptsI
Remark: another data set of the same source

Q: H208R was tested. Which “effect of a mutation on the interaction” value did it give?
A: decreasing interaction

Variants of: B1
Details: with pthp_ecoli ptsH
Remark: another data set of the same source

Q: How did the “effect of a mutation on the interaction” value turn out when D100N was run?
A: increasing interaction
